Experimental data: paper PMC11960969, “Mdga2 deficiency leads to an aberrant activation of BDNF/TrkB signaling that underlies autism-relevant synaptic and behavioral changes in mice” (PLOS Biology, 2025)

Tested on: cell membrane localization in HeLa cells and mouse primary neurons
Assay: Immunostaining of membrane localization of MDGA2, ΔMAM or V930I in transfected cells
Assay type: cell-based
Conditions: HeLa cells transfected 24 h, S3E Fig
Excerpt: Fig 7 The autism spectrum disorder (ASD)-associated MDGA2 V930I mutation impairs the MDGA2-TrkB interaction and MDGA2’s inhibitory effect on the tyrosine kinase B (TrkB) signaling. (A) Schematic depiction of the WT human MDGA2 and its V930I mutation constructs that are tagged with GFP. (B, C) HeLa cells (B) and mouse primary neurons (C) transfected with MDGA2 (green) or V930I (green) were immunostained with an antibody against the plasma membrane protein ATP1A1 (red) and then observed by confocal microscopy. Scale bars = 10 μm. (D) Cell surface expression of WT MDGA2 or V930I in transfected HeLa cells was determined by surface biotinylation assays. Biotinylated (cell surface) protein levels were quantified by densitometry and normalized to total protein levels for comparison (WT MDGA2 levels were set to one arbitrary unit). n = 4 experimental replicates. (E) Mouse primary neurons were transfected with MDGA2, V930I, or ΔMAM. […] Immunoprecipitated protein levels were quantified by densitometry, normalized to respective inputs, and compared to those transfected with MDGA2 (set to one arbitrary units). n = 4 experimental replicates. […] Levels of phosphorylated proteins were quantified by densitometry, normalized to respective total protein levels and compared to controls (set to one arbitrary units). n = 6 experimental replicates. […]

B1: MDGA2-ΔMAM: truncated form of MDGA2 lacking its MAM domain (protein)
chain: PPTVRIVHSGLACNIEEERYSERVYTIREGETLELTCLVTGHPRPQIRWTKTAGSASDRFQDSSVFNETLRITNIQRHQGGRYYCKAENGLGSPAIKSIRVDVYYLDDPVVTVHQSIGEAKEQFYYERTVFLRCVANSNPPVRYSWRRGQEVLLQGSDKGVEIYEPFFTQGETKILKLKNLRPQDYANYSCIASVRNVCNIPDKMVSFRLSNKTASPSIKLLVDDPIVVNPGEAITLVCVTTGGEPAPSLTWVRSFGTLPEKTVLNGGTLTIPAITSDDAGTYSCIANNNVGNPAKKSTNIIVRALKKGRFWITPDPYHKDDNIQIGREVKISCQVEAVPSEELTFSWFKNGRPLRSSERMVITQTDPDVSPGTTNLDIIDLKFTDFGTYTCVASLKGGGISDISIDVNISSSTVPPNLTVPQEKSPLVTREGDTIELQCQVTGKPKPIILWSRADKEVAMPDGSMQMESYDGTLRIVNVSREMSGMYRCQTSQYNGFNVKPREALVQLIVQYPPAVEPAFLEIRQGQDRSVTMSCRVLRAYPIRVLTYEWRLGNKLLRTGQFDSQEYTEYAVKSLSNENYGVYNCSIINEAGAGRCSFLVTGKAYAPEFYYDTYNPVWQNRHRVYSYSLQWTQMNPDAVDRIVAYRLGIRQAGQQRWWEQEIKINGNIQKGELITYNLTELIKPEAYEVRLTPLTKFGEGDSTIRVIKYSAPVNPHLREQDLATKNSVD
modifications: left off: GFP, end not stated, kept
notes: truncated form of MDGA2 lacking its MAM domain
- cell membrane localization: no effect on its cell membrane localization
